From patent CN112010969A (UNIV NANCHANG, dated 2020)

Target: T1, 增强绿色荧光蛋白 (enhanced green fluorescent protein, EGFP) (Aequorea victoria (engineered mutant), UniProt P42212 1-238 = GFP, limits assumed)
T1 construct: also called EGFP蛋白
Assay: biolayer interferometry: nanobody coupled by EDC/s-NHS to AR2G probe, association 300 s, dissociation 120 s in PBS

B1: 高亲和力增强绿色荧光蛋白纳米抗体 (anti-EGFP nanobody), clone 4-28 (VHH)
VHH: QVQLVESGGGLVQPGGSLRLSCAASGSRFSIHTMGWYRQAPGKQRELVATITWGGRQNYADSVKGRFTINRDNDKNTVDLQMDSLKPEDTAVYYCNVRPISNGPDYWGQGTQVTVSS
notes: Alpaca VHH selected by phage display; The purified protein was about 20 kD by SDS-PAGE; also called 抗EGFP纳米抗体; 编号4-28; not shown: Expressed from PET25b in E. coli Rosetta and purified on a nickel column
Question: With B1 as the binder, how does the Kd read?
Answer: 0.0967 nM
